pKd: −log10 of the molar value.
Assays:
[1] = target: fluorescently labeled K48-Ub4 (S20C on the most distal Ub, Alexa Fluor 488) (UniProt P0CG48); assay: fluorescence polarisation
full-length (FL) UBQLN2 = full-length (FL) UBQLN2 (UniProt Q9UHD9); assay: NMR titration

pKd [1]	pKd (full-length (FL) UBQLN2)	Substance
5.57		UBQLN2 450-624 (from UniProt Q9UHD9 450-624) (domain or fragment)
	5.52	ubiquitin (Ub) (from UniProt P0CG48 1-76) (natural protein; other documents disagree on this pair)
